In a protein production outcome set (Wang et al. 2014):

Assay: label from the status in PepcDB records

Sequence | protein production
MSYSVTLTGPGPWGFRLQGGKDFNMPLTISRITPGSKAAQSQLSQGDLVVAIDGVNTDTMTHLEAQNKIKSASYNLSLTLQKSKRPIPISTTAPPIQSPLPVIPHQKVVANSPANADYQERFNPSVLKDSALSTHKPIEVKGLGGKATIIHAQYNTPISMYSQDAIMDAIAGQAQAQGSDFSGASPLASLPVKDLAVDSASPVYQAVIKTQSKPEDEADEWARRSSNLQSRSFRILAQMTGTEYMQDPDEEALRRSSTPIEHAPVCTSQATSPLLPASAPSPAAASPIAASPTLATAAAAHAVAASAAGPASSPVENPRPQASAYSPAAATSPAPAAHTSYSEGPAAPAPKPRVVTTASIRPSVYQPVPASPYSPSPGANYSPTPYTPSPAPAYTPSPAPTYTPSPAPTYSPSPAPAYTPSPAPNYNPTPSAAYSGGPSESASRPPWVTDDSFSQKFAPGKSTTSVSKQTLPRGAPAYNPTGPQVTPLARGTFQRAERFPASSRTPLCGHCNNVIRGPFLVAMGRSWHPEEFNCAYCKTSLADVCFVEEQNNVYCERCYEQFFAPICAKCNTKIMGEVMHALRQTWHTTCFICAACKKPFGNSLFHMEDGEPYCEKDYINLFSTKCHGCDFPVEAGDKFIEALGHTWHDTCFICAVCHVNLEGQPFYSKKDKPLCKKHAHAINV | failed
MTAADPGTRIVRWALVAGAVAGLLAVMAGAFGAHGLRHVVSERGLEVFQTAVSYQMYHALALVAVSLMPALGLSGNLLTLACGFWLAGMMLFSGSLYLLVLTGIHWLGPVTPVGGVCFMVGWVLLIVAALKK | failed
MTAAPGTSMATPHVAGIAALLLQAHPSWTPDKVKTALIETADIVKPDEIADIAYGAGRVNAYKAINYDNYAKLVFTGYVANKGSQTHQFVISGASFVTATLYWDNANSDLDLYLYDPNGNQVDYSYTAYYGFEKVGYYNPTDGTWTIKVVSYSGSANYQVDVVSDGSLSQLEHHHHHH | not failed
MTAETPSLTSPQAQRILRLYHLYRLTIGVVLVLLISSSLETELLQLANPNLFRSGCWLYLVFNILVVVLLERPSRQAQLFGLAMTDAIMLSGLFYAAGGPSSGIGNLLIASVAISNVLLRGRIGLLIAAVSAIGIIYLTFYISFGTPSVSNDYVQAGSLGALCFAAALLVQALTARLQVSEGLAEQRAADVDSLEELNALILQRMRTGIVVLDARRQVVLANQGALTLLGHERLVGQVIDAYSPQLVERLRQWLINPIMVPRSITTSSIGPVLQPSFAALNRGDQRQTLIFLEDLSQIAHQAQQLKLAALGRLTAGIAHEIRNPLGAVSHAAQLLNESEDLSAPDRRLGQIIHDQSQRIDRVIENVLQLSRRREAQPELLDLKVWLENFVSDFRSSAAADQSIHVQISSGMLTTRMDAGQLTQIITNLVQNGLRYSRRNHPSAQVWLNLHHDRESDLPILEVLDDGPGVSEQHLSKIFEPFFTTESKGTGLGLYLSRELCESNQAHLEYIPRPHDGGSCLRITFAHPFKTS | failed
MTAFYLLVPFLFIRFIFLSLLDRKATGRAAHFASMQGKEIIAYYLYQLSTLMLLIVPFFLKVSLHFSSFFYLGLGAYLLGSVLLFLVIKDFANPDEKGLNTKGLYALSRHPMYIAYFVLFLGVAMLTQSLTLLIFLAIFQLSAHFIILAEERECLIKFGAAYQEYQKRVRMYL | failed
MTAGWCCRTVRAALFAAVCVLLAALGHVMMSGTAVPWWAMTVAALVTGGTGWCLAGRERGLALIVSVVVVAQGALHSAFSVAQSAAHSAGSVGADSMPKGSMGSDMSSVHMDSVHMDSMDMGNMGAGHLAHLGHDMGGGSSFGMLAAHSAAALLCGLWLAYGERAAFRILRALAGRLAAPLRLLLALPTPAHRPRIRVRRGSSDRTPRRLLLVHAITSRGPPVGTAVI | failed
MTAIPRAPLILGLAGLIPFLWGALTYLSPAAQAWGAAALGPRFVGPYVQIAYGQIILAFMSGVLWGFATKADDRRAATGYVLAVLPALWAFFMTGGGPTGAAINLIFGFLGLLMLDAAFASWGLAPVWWMRLRLLLTAVVTICLAVGAFL | failed
MTALLTRVWACTLCQAELPFPPKPILQASSQARILIAGQAPGVKTHHKGIPFDDASGERLRAWLNVSREQFYDPALFAIVPMGFCFPGNIERKGKKQGDKPPRPECAATWHKALLALMPNIELVIVLGQYAMDYHLSRLLMDNMHKNRGFNSTPLAAAHTIGKATSNKKITLTQAVEQWPLYWPQLMVMPHPSPRNNLWLKQHPEFEQHLIPTLRSRISSLLT | failed
MTANAYVRARIDQTLKDDATAVLDRLGLTVSDVMRMMLTRIAREKALPIELTQPNAETLAAIEEARAIAAAGRNRFGTSEALFEALDAGKRLEHHHHHH | not failed
MTAPASSLDRFFGLRARGTTVRREILAGTTTFMTMAYILFVNPEILGSAAGAGHFAAILTSTALVAAVMTAAMGLFANLPLALASGMGLNAVVAFGLVLGKKLTYPQAMGVIVAEGVLITLLVATGLRQAVVRAVPMTLKRAIGIGIGLFLAIIGFKAAGFISAGGALLQLGPEGAAGRLTGFPVVLFALTLVFTAWLVSRGVRGALLIGIAVSTAVAVTAKAAFGGAGFAPHVANLPSSIFGLPDFSMLGQVDFSFVAVLGPLAASLAVFSIMLSDFFDTVGTVVAVGQEAKYLDEQGNFPRASTVLMVDSLAAIAGGLAGASSATTYVESAAGAASGGRTGLTSVTTAALFALCLFISPLAGIVPPQATGAVLVLVGYMMMRDVGAIAWDDPSESIPAFLTVTVMPFTYSITNGIGAGFVSYVLLKLAGGKAREVHPLMIGASVAFVVYFAIGG | failed
MTAPDRSPPRYKSDLIYGLNDRPHFSAAIFAALQHVLASFVGIISPTLIFGGVLGLESELPYLISMALFVSGLGTFVQARRLGPIGSGLLCVQGTSFSFISVLLSAGFMVKGRGGDTNEILSTIFGICFVAAFIEMFLSQFIGKLRKLITPVVTGTIITLMGLSLIKVAVTDMAGGYGASDLGAASNLGLAALVLLTIVVLNRFNHPMLRLGSIVIGLTLGFVVAWMLGRVDMAAMPEVPLVSVPVPFKYGFSFDLIAFIPLAVIFLISPLEAAGDLTANSMISQQPVKGPLYIKRIKSGLLADGFNSAVAAVFNSLPMVTFAQNNGVIQLTGVASRYVAYFIAGLLVLLGLFPVIGAVLQLMPKPVLGGATLIMFGTVAVAGIKILAEAGLHRRNVLIVAISLGMGLGVAAVPEVLRELPKALHNIFESPITVGAFCAIFLNIFLPEEFLELEEDEFDPEAATLKVMQDPDMSGKANS | failed
MTAQLISPTIHGILDYLLGAVLVVAPSVLGLPTGPAVIAYAVGGAHLAMSLLTGYAPGALRVIPFWAHGAVEAAGWAGLLVFLGLLTAPADGLFLASGVGILVVSALTDYGVETDGVRLRARRHAHARP | failed
MTAQPLLVFDFDGVIVDGMAEYWWSAWMAAQRLNAEPQGLGSDAVPQGFRRLRPWVHHGWEMVLLAAEMPQLDPERWVVDYATEQDMALQRRGWSASLLQEALDQTRQQAVSSDRAAWLGLHQPFPGLVDRLQAFQEEGVDWAVLTTKTAAFTAELLESLGLRPWRLDGREAGPKPEVLLRLQRERVLAGFVEDRRATLETVRDTDGLQSLPCWLASWGYLKPSDREDLPRGIQLIDQDRLATPLAQWP | failed
MTASLEIRPFQETDLDFVRQLARQEDFAPGIGDIAIYANTANQGVWLAWQGDMPVGCIAAVKYNLDYGFMGLFVVHPDHRGGGVGRQLWDHALALLADVTCIGLEAAPSMVEFYQRQGFRKDSITTRRQHLRLEESSQHPTRRLLHRNDITIVPLKAISLDAVQAYDERHEISPRPHFLQQWLNHQAGDVFVAMDGSHQCHGYVRIRPCLLPIGQGWRIGPLLAEEPGIASLLLSNAMDRHKGIILIDTPGHNRSARTVAGAKGFRRMGATHRMYKGDLDNGHDQNIYGLACLELG | failed
MTASSKRTKKQAILETALQLFVSQGFHGTSTATIAREAGVATGTLFHHFPSKEQLLEQLFLGVKQEFADAIQASVSSRGDLKQDAEQLWFAALTWAMANPLKQAFFQLYSMSPTVEQSVRDQAMHGILGFIAELIRQGQASGELAEYPIELMQDNCHGQYLAATRYFVDHPERWQQAHERSASFALFWNAMAVR | not failed
MTATASTVLPARALLLDMDGTLVNSDAAVDRVWRRWADRHGLDGDEVMKVVHGRQGYASMALLLPDRPMEHNHADNARMLAEETADTEGVVAIPGAAEFLASLRGLPHALVTSADVALSTARMAAAGLAQPDVRVTAESVGASKPDPEGFLKGAAELGIAPADCVVFEDSGAGIAAGRAAGMRVVGVGPRAGFHGPDVVVEDLTRVRVEADADGGLRLHIG | failed
MTATEPTEKILPSPDYVQSLARGLAVIRCFDHRNQRRTLSDVARATDLTRATARRFLLTLVELGYVATDGSAFWLTPRVLELGYSYLSSLSLPEVAQPHLEKLSHKVHESSSVSILDGADIVYVARVPVSRIMTVGITIGTRLPAYATSMGRVLLAGLPDDELDAYLEKLDIQRLTERTITARDELKAAILAVRADGICVLDQELEAGLRSMAAPIRGASGLTVAAVNISTPAARYSLEDLHSDLIPSLRVTATDIEQDLATVNR | not failed
MTATQITGVVLAAGRSNRLGTPKQLLPYRDTTVLGATLDVARQAGFDQLILTLGGAASAVRAAMALDGTDVVVVEDVERGCAASLRVALARVHPRATGIVLMLGDQPQVAPATLRRIIDVGPATEIMVCRYADGVGHPFWFSRTVFGELARLHGDKGVWKLVHSGRHPVRELAVDGCVPLDVDTWDDYRRLLESVPSLEHHHHHH | failed
MTDACCLKGNEDKMVPRFGHGTWIGKAFNDTPEMLHERSLRQEKRLERANELMNDDSLQKLETAAMARSRSVDSAPLGNYTIWKNEYRRGKSFEDMLRLMQDQIIMARVYSGLAKFTNNLALHQEIETQLMKLAWEEESTDIDQEQRVLDSIRDMGQILARAHEQLYECKLVTNKLRAMLQTVEDELENEQTYITFLTQLASKALPDAIHCLTMRLNLEYHLLPLPMRNFPRRENLENPKLYHYALFSDNVLAASVVVNSTVMNAQDPSRHVFHLVTDKLNFGAMSMWFLLNPPGEATIHVQRFEDFTWLNSSYSPVLSQLESAAMKKFYFKTARSESVESGSENLKYRYPKYMSMLNHLRFYIPRIFPKLEKILFVDDDVVVQKDLTPLWSIDLKGKVNENFDPKFCGWAYGMNIFDLKEWKKNNITETYHFWQNLNENRTLWKLGTLPPGLITFYNLTQPLQRKWHLLGLGYDKGIDVKKIERSAVIHYNGHMKPWTEMGISKYQPYWTKYTNFDHPYIFTCRLFE | failed
MTDARPHLRLRLARPEDMPALSALMDRAIGELLQDFLPPEGVKASYEIMGLDTQLIADGTYFVVEDGAAIAGCGGWSRRATLFGGDHSAGRDAALLDPKTDAARVRAMYTHPDHTRKGVGRIILDACEAAARAEGFSSVEMAATMGGVPLYRACGYHDIEPFEAVTSTGYRVPLIRMGKAL | failed
MTDIHHQPEQTDDELYRHFFSRGGSLRLLADIQGEDLESLYGYAKQLFDGGEIAAARNVYQLLSTLDHWNFDYLLALGLCHQRLGAHNEAVVCFGRAGLIKVDDPRAAFYAGISYRLDGNAEYASKAFKAAINWCGEQIDYQAIKASAVDMLALQQEEVPC | failed
MTDKFLQFPVIDPIIFSIGPVSLRWYGTMYLIGFLAAMFMANKAADRSNGLWTRDQVSDVLFYGFLGVILGGRVGYVLFYQFEYFLSDPLYLFEIWQGGMSFHGGLLGVILAVFIFARKTNKSFLAVGDFVVPLVPIGLGMGRLGNFINAELWGRQTDVSWAMVFPTDPLQVPRHPSQLYEFALEGVVLFAILYIISRKTRSLGLASGTFLIGYGVFRSIVEFFREPDAHLGLYFSFISKGQILSIPMILAGILIIYLGYLSQQKSAIAQGDKALAAGGKSGKKTVKGNN | failed
MTDLPPPFTTLAAAHRVDAVIDHSEFLAFAERADSPEEALAHLAALRTRYPDATHHCWAYRIGAAYRFGDDGEPGGTAGAPILRAIEGQGVDHVMVVVVRYYGGVKLGTGGLVRAYGGVAAECLRTAPRLDVRPRRTLQVSVPFDHLSGLYHLLGTWDAARGEETYTGAGVTLPVEVYPEDVEAFQAALRDATRGSAVVEEEE | not failed
